Assays:
[1] = tested on: D412A-68 D412A (Adeno-associated virus 2); assay: EMSA; settings: apparent Kd, same as wt; 40 mM KCl, 10 mM HEPES pH 7.5, poly dIdC, 25 C
[2] = tested on: Rep68H6 (wt Rep68) (Adeno-associated virus 2); assay: EMSA; settings: apparent Kd; 40 mM KCl, 10 mM HEPES pH 7.5, poly dIdC, 25 C

Work on “AAV terminal repeat hairpin with double-stranded trs (32P-TR)” yielded a Kd [1] of 3 nM and a Kd [2] of 3 nM.
